Test results from US20130096282A1 (LOSTAM BIOPHARMACEUTICALS, published 2013).

Key:
[1] = biological target: T1, recombinantly-expressed P. aeruginosa flagellin type A (Pseudomonas aeruginosa, UniProt P21184 2-394); test: SPR (ProteOn XPR36), mAb amine-coupled to GLM chip, flagellin as analyte 5-80 nM, 1:1 model
T1 construct: also called PA flagellin type A; PA flagellin A
T1 sequence: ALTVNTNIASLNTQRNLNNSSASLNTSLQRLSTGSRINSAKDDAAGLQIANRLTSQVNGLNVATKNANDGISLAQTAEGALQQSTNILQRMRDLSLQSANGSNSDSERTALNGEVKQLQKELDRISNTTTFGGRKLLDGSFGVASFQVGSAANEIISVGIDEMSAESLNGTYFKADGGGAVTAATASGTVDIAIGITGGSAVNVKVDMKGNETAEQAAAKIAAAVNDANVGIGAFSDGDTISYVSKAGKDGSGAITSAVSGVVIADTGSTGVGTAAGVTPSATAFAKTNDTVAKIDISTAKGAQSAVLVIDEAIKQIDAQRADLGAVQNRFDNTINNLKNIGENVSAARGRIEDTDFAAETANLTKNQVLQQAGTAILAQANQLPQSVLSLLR

[2] = biological target: T2, flagellin type B of P. aeruginosa laboratory strain PA01 (Pseudomonas aeruginosa, UniProt P72151 1-488); test: immunoblot of P. aeruginosa lysates probed with LST-003, anti-human Fc peroxidase detection
T2 construct: whole, on cells; Tested on whole immobilized or formaldehyde-fixed bacteria (ELISA), in blotted lysate (western blot) and on live bacteria (motility)
T2 sequence: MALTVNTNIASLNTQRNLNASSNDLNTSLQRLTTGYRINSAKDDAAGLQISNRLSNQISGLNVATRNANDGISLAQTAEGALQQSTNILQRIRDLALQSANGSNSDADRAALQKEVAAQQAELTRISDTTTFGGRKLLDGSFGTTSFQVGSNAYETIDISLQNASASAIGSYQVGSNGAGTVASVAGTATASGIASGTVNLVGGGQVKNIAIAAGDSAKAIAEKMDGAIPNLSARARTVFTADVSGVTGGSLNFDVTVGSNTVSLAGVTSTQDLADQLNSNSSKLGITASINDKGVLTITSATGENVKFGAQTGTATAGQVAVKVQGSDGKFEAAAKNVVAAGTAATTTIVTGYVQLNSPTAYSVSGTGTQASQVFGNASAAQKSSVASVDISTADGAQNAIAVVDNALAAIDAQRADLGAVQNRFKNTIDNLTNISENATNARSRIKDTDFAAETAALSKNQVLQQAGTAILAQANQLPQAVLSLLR

[3] = biological target: T1, recombinantly-expressed P. aeruginosa …; test: ELISA, plates coated with recombinant flagellin type A (250 ng/well), anti-human Fc-HRP
[4] = biological target: T1, recombinantly-expressed P. aeruginosa …; test: ELISA on plates coated with purified flagellin type A
[5] = biological target: T2, flagellin type B of P. aeruginosa …; test: immunoblot of P. aeruginosa lysates probed with LST-001, anti-mouse Fc peroxidase detection
[6] = biological target: T3, recombinantly-expressed P. aeruginosa flagellin type B (Pseudomonas aeruginosa, UniProt P72151 1-488); test: SPR (ProteOn XPR36), mAb amine-coupled to GLM chip, flagellin as analyte 5-80 nM, 1:1 model
T3 construct: also called PA flagellin type B; PA flagellin B
T3 sequence: T2 sequence

[7] = biological target: T3, recombinantly-expressed P. aeruginosa …; test: ELISA, plates coated with recombinant flagellin type B (250 ng/well), anti-human Fc-HRP
[8] = biological target: T3, recombinantly-expressed P. aeruginosa …; test: ELISA on plates coated with purified flagellin type B
[9] = biological target: T4, flagellin type A of P. aeruginosa laboratory strain PAK (Pseudomonas aeruginosa, UniProt P21184 2-394); test: ELISA on whole immobilized bacteria, single point
T4 construct: whole, on cells; Tested on whole immobilized or formaldehyde-fixed bacteria (ELISA) and in blotted bacterial lysate (western blot)
T4 sequence: T1 sequence

[10] = biological target: T3, recombinantly-expressed P. aeruginosa …; test: ELISA, plates coated with recombinant flagellin type B at 5 µg/ml, anti-human Fc-HRP

B1: chimeric mAb LST-003 (antibody, V domains shown)
VH: DVQLQESGPGLVKPSQSLSLPCSVTGYSITSGYYWNWIRQFPGNKLEWMGYIRYDGNNNYNPSLKNRISITHDTSKNQFFLKLNYVTTEDTATYYCARGLQFYFDSWGQGTTLTVSS
VL: DIVMSQSPSSLAVSGGEKVTMSCKSSQSLLNGSYQKHTLAWYQQKPGQSPKLLIYWASTRESGVPDRFTGSGSGTDFTLTISSVKAEDLAVYYCQQYYSYPWTFGGGTKLEIKR
notes: also called chimeric LST-003; chimeric anti-flagella type A antibody
In the case of B1, the Kd [1] is reported as 3000 pM, the binding result [2] is reported as “no binding (tested: 10 µg/ml)” and the EC50 [3] is reported as about 0.065 µg/mL. The “EC50 (read off the curve)” value [4] was about 700 pM.

B2: mouse monoclonal antibody LST-001 (antibody, V domains shown)
VH: B1 VH
VL: B1 VL
notes: Mouse monoclonal antibody; also called mouse LST-001; FA6 IIG5 (ATCC HB9130)
With B2 the binding result [5] was “no binding (tested: 10 µg/ml)” and the Kd [1] was 600 pM.

B3: dual-specific chimeric mAb LST-010 (bispecific antibody)
heavy: not shown
light: B1 VL
notes: also called dual-specific LST-010 mAb; not shown: human light constant domain (CL)
For B3, the “EC50 (read off the curve)” value [4] was about 900 pM.

B4: chimeric mAb LST-004 (antibody, V domains shown)
VH: EVMLVESGGGLVKPGGSLKLSCAASGFTFSTFTMSWVRQTPEKRLECVATINGGGGNTYYPDSVKGRFTISRDNAKNNLYLQMSSLRSEDTAFYFCSRLYGIYAMDYWGQGTSVTVSS
VL: DIVMTQSHIFMSTSVGDRVSITCKASQDVGSAVAWYQQKPGQSPKVLIYWTSTRHTGVPDRFAGSGSGTEFTLTISNVQSEDLADYFCQQYSSYPLTFGAGTKLELKR
notes: also called chimeric LST-004
In the case of B4, the Kd [6] is reported as 1300 pM, the EC50 [7] is reported as about 0.3 µg/mL and the “EC50 (read off the curve)” value [8] is reported as about 1000 pM.

B5: mouse monoclonal antibody LST-002 (antibody, V domains shown)
VH: B4 VH
VL: B4 VL
notes: Mouse monoclonal antibody; also called mouse LST-002; PaF4 IVE5 (ATCC HB9129)
With B5 the Kd [6] was 820 pM and the binding result [9] was “no binding (tested: 1:2 dilution, concentration not given)”.

B6: human monoclonal IgM antibody LST-007 (antibody, V domains shown)
VH: QVRLVQSGTEVKKPGASVRVSCKASGYTFSNYYMYWVRQAPGQGLEWMAMINPSGGSTRYAQKFQGRVTMTRDTSTSTVYMELSSLRSEDTAVYYCARADSGSYFGYWGQGTLVTVSS
VL: DIQLTQSPSFLSASVGDRVPITCRASQGISTHLAWYQQKPGKAPKLLIYAASTLQSGVPSRFSGSGSGTEFTLTISSLQPEDSATYYCQQLKSYPLTFGGGTKVEIKR
notes: Human IgM from an EBV-transformed lymphoblastoid cell line, tested as culture supernatant; also called 20H11 (ATCC CRL9300); human monoclonal IgM anti-flagella type B antibody
B6: no binding [9].

B7: fully human recombinant mAb LST-008 (antibody, V domains shown)
VH: B6 VH
VL: B6 VL
notes: Human IgG1 made in CHO-S cells; also called recombinant human LST-008
B7 gave an EC50 [10] of about 0.01 µg/mL and a Kd [6] of 940 pM.
